Molecular target: recombinant prefusion RV3 F antigen (human respirovirus 3 fusion glycoprotein, prefusion conformation) (human respirovirus 3 (RV3))
Experiment: cryo-EM structure

Substance: recombinant prefusion RV3 F antigen (human respirovirus 3 fusion glycoprotein, prefusion conformation) (natural protein)
- stoichiometry N: 3
